Measured values from US20190038796.

Molecular target: EGF-MMP (recombinant epidermal growth factor with N-terminal PLP reactive site AKT, polyhistidine tag and MMP cleavage site VPLSLYSG)
Sequence (chain, as listed by the source): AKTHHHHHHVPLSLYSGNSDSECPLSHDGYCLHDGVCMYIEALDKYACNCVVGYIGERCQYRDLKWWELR

B1: Recombinant, human pro-MMP-9 expressed in CHO cells, activated with amino-phenyl mercuric acetate (APMA) (protein)
chain: APRQRQSTLVLFPGDLRTNLTDRQLAEEYLYRYGYTRVAEMRGESKSLGPALLLLQKQLSLPETGELDSATLKAMRTPRCGVPDLGRFQTFEGDLKWHHHNITYWIQNYSEDLPRAVIDDAFARAFALWSAVTPLTFTRVYSRDADIVIQFGVAEHGDGYPFDGKDGLLAHAFPPGPGIQGDAHFDDDELWSLGKGVVVPTRFGNADGAACHFPFIFEGRSYSACTTDGRSDGLPWCSTTANYDTDDRFGFCPSERLYTQDGNADGKPCQFPFIFQGQSYSACTTDGRSDGYRWCATTANYDRDKLFGFCPTRADSTVMGGNSAGELCVFPFTFLGKEYSTCTSEGRGDGRLWCATTSNFDSDKKWGFCPDQGYSLFLVAAHEFGHALGLDHSSVPEALMYPMYRFTEGPPLHKDDVNGIRHLYGPRPEPEPRPPTTTTPQPTAPPTVCPTGPPTVHPSERPTAGPTGPPSAGPTGPPTAGPSTATTVPLSPVDDACNVNIFDAIAEIGNQLYLFKDGKYWRFSEGRGSRPQGPFLIADKWPALPRKLDSVFEERLSKKLFFFSGRQVWVYTGASVLGPRRLDKLGLGADVAQVTGALRSGRGKMLLFSGRRLWRFDVKAQMVDPRSASEVDRMFPGVPLDTHDVFQYREKAYFCQDRFYWRVSSRSELNQVDQVGYVTYDILQCPED
conversion to the cleaved product by integration of MALDI-TOF data: over 99% conversion to the cleaved product
molecular weight by MALDI-TOF after incubation with MMP-9 (cleavage): After 2 hours, the molecular weight decreased from 8.16 kDa to 6.64 kDa, in precise agreement with the theoretical molecular weight of cleaved EGFMMP (6.64 kDa)
